Results as given in US20220073643A1 (NANJING GENSCRIPT BIOTECH, published 2022).
Where a chain is given by its changes, count along the chain named.

B1: 181C7B2 (antibody, V domains shown)
VH: QVQLKQSGPGLVQPSQSLSITCTVSGFSLTYYGVHWVRQSPGKGLEWLGVIWRGGNTDYNAAFISRLSINKDNSKSQVFFKMNSLQPNDTAIYYCARAAYYGNCFDYWGQGTTLTVSS
VL: DIVMTQSPSSLTVTAGEKVTMSCKSSQSLLNSGNQKNYLTWYQQKPGQPPKLLIYWASTRESGVPDRFTGSGSGTDFTLTISSVQAEDLAVYYCQNNYIYPLTFGAGTKLELK
B2: 186G12H3 (antibody, V domains shown)
VH: EVMLVESGGGLVKPGGSLKLSCAASRFTLSSYAMSWVRQTPEKRLEWVATISSGGSYTYYFDSVKGRFTISRDTAKNTLNLQMSSLRSEDTAMYYCARLYYGNALDYWGQGTSVTVSS
VL: B1 VL with M21V, K109T
B3: 248G8E8 (antibody, V domains shown)
VH: QVQLKESGPGLVAPSQSLSITCTVSGFSLTTYGVSWVRQPPGKGLEWLGVIWGDGSTNYHSTLISRLRISKDKSKSQVFLKLNSLQTDDTATYYCAKAGRGNALDYWGQGTSVTVSS
VL: B1 VL with M4L, N97D, I99S, Y100F
B4: 250F4G1 (antibody, V domains shown)
VH: QAYLQQSGAELVRSGASVKMSCKASGYTFTSHNMHWVKQTPGQGLEWIGYIYPGNGRTNYNQKFKGKATLTADTSSSTAYMQISSLTSEDSAVYFCTRDYYGNSFAYWGQGTLVTVSA
VL: B1 VL with V13E, T14K, A15V, K18R, T20S, L30F, N97D, I99W, L102F
B5: 250F4G4 (antibody, V domains shown)
VH: B4 VH
VL: B1 VL with V13E, T14K, A15V, K18R, T20S, L30F, N97D, I99W, L102F
B6: 252C10F6 (antibody, V domains shown)
VH: QVHLKQSGRGLVQPSQSLSITCTVSGFSLPNYGVHWVRQPPGKGLEWLGVIWSGGNTDYNTVFKARLSITKDNSKSQVFFKMNSLQADDTAIYYCARNLYGNYDYAMDYWGQGTSVTVSS
VL: DIVMTQSPATLSVTPGDRVSLSCRASQSISDYLHWYQQKSHESPRLLIKYASQSISGIPSRFSGSGSGSEFTLSINSVEPEDVGVYYCQNGHSFPFTFGSGTKLEIK
B7: 252E7C9 (antibody, V domains shown)
VH: B4 VH with A2T, K23R, A24T, T28S, R57G, T58S, N59Y, T69I, A106V
VL: DVVMTQSPSSLTEKTGEKVSMSCKSSQSLLNSGNQKNYLTWYQQKPGQPPKLLIYWASTRESGVPDRFTGSGSGTDFTLTISSLQTEDLAIYYCQNNFRYPFTFGAGTKLELK
B8: 194A2F7 (antibody, V domains shown)
VH: QIQLVQSGPELKKPGETVKISCKASGYTFTDYLIHWVKQAPGKGLKWMGWINTETGEPTYADDFKGRFALSLETSASTACLQINNLKNEDTATYFCARIYYGNSFDYWGQGTTLTVSS
VL: B1 VL with T12P, S22T, S28N, N37S, S62T, N97A, I99R, Y100F, L102F, K109R
B9: 252F1B10 (antibody, V domains shown)
VH: B4 VH with R57G, S84N
VL: B1 VL with V13E, T14K, K18R, T20S, L30F, N97D, I99R, L102F
B10: 253E4F7 (antibody, V domains shown)
VH: EIQLQQSGPELMKPGASVKMSCKASGYSFTSYYIHWVKQSHGKSLEWIGYIDPFNGGTRYNQKFEGKATLTVDKSSTTAYMHLSSLTSEDSTVYYCASLRFLAYWGQGTLVTVSA
VL: B1 VL with S22T, L52V, Y55S, W56R, E61Q, N97D, I99S
B11: 254A8D5 (antibody, V domains shown)
VH: EVMLVESGGGLVKPGGSLKLSCAASGFTFSSYTVSWVRQTPEKRLEWVATSIVGSTYTYFPDSVKGRFTISRDFAKNTLFLQMSSLRSEDTAMYYCSRLGRGNAMDYWGQGTSVSVSS
VL: B1 VL with M21L, S22N, K24R, E87D, N97G, I99S, L102F, A106S, L112I
B12: 256C3D3 (antibody, V domains shown)
VH: B4 VH with T28A, Y52S, R57Y, K65R, S84G
VL: B1 VL with V13E, T14K, K18R, T20S, L30F, I99W, Y100F, L102F
B13: 257B1G9 (antibody, V domains shown)
VH: B4 VH with R57G
VL: B1 VL with V13E, T14R, K18R, T20S, L30F, N97D, I99R, L102F
B14: 257F1E11 (antibody, V domains shown)
VH: B4 VH with M34I, G42R, R57G
VL: B1 VL with V13E, T14K, K18R, T20S, L30F, V91I, N97D, I99W, L102F
B15: 257G7B9 (antibody, V domains shown)
VH: B4 VH with M34L, R57N
VL: B1 VL with V13E, T14K, K18R, T20S, L30F, I99W, Y100F, L102F
B16: 257G7F7 (antibody, V domains shown)
VH: B4 VH with M34L, R57N
VL: B1 VL with V13E, T14K, K18R, T20S, L30F, I99W, Y100F, L102F
B17: 258D11C4 (antibody, V domains shown)
VH: B4 VH with T30S, R57G
VL: B1 VL with V13E, T14K, K18R, T20S, L30F, E61Q, N97D, I99W, Y100F, L102F
B18: 194D3B2 (antibody, V domains shown)
VH: QAYLQQSGAELVRSGASVKMSCKASGYPFTSYNMHWVKQTPGQGLEWVGYIYPGNGGTNYNQKFRDKATLTADTSSSTAYMQISRLTSDDSAVYFCLTGRGFAYWGQGTLVTVSA
VL: B1 VL with T12I, A15P, K18R, W56R, N97D, I99S, A106I
B19: 259B4D4 (antibody, V domains shown)
VH: EIQLQQSGPELMKPGASVRISCKASGYSFTSYYMHWMKQSHVKSLEWIGYIDPFNGNTRYNQKFKDKATLTVDKSSTTAYMHLSSLTSEDSAVYFCASLRFFAYWGQGTLVTVSA
VL: B1 VL with K24N, T59S, S83T, N97D, I99S, Y100F, K109R
B20: 259C6F4 (antibody, V domains shown)
VH: B4 VH with T30S, M34I, R57D, T97A, A106V
VL: B1 VL with T5I, V13E, T14K, T20S, N97A, I99R, Y100F, L102F
B21: 259C6F7 (antibody, V domains shown)
VH: B4 VH with T30S, M34I, R57D, T97A, A106V
VL: B1 VL with T5I, V13E, T14K, T20S, N97A, I99R, Y100F, L102F
B22: 260F8A6 (antibody, V domains shown)
VH: B4 VH with K23R, R57N, N59Y, S77N, S84N, T97V, A106V
VL: B7 VL with T69I, I91V, F98Y, R99M
B23: 260G9E8 (antibody, V domains shown)
VH: B4 VH with Y3D, T30A, R57G, N59K, K65T, S84T, T97A
VL: B1 VL with V13E, T14K, T20S, S22R, E87D, N97D, I99M, Y100F, L102F
B24: 262C7C10 (antibody, V domains shown)
VH: B4 VH with S31N, H32Y, M34I, R57G, T58N, N59Y, S77I, T97A
VL: B1 VL with S22N, V91I, N97D, I99Y
B25: 262H9H6 (antibody, V domains shown)
VH: B4 VH with Y52S, R57Y, K65R, A106T
VL: B1 VL with V13E, T14K, K18R, T20S, L30F, D76E, I99W, Y100F, L102F
B26: 263E9F3 (antibody, V domains shown)
VH: B10 VH with L4V, M20I, K23R, A24S, H41R, N55S, T92A, L102F
VL: B1 VL with S22T, K36E, K51E, Y55S, W56R, E61Q, A86T, N97D, I99S
B27: 265E6G2 (antibody, V domains shown)
VH: B4 VH with H32Y, R57G, T97A
VL: B1 VL with I2L, S83N, V84I, N97D, I99S, T103P, K113R

These binders were tested against human Claudin18.2 (human) (assay: cell-based or functional assay).
B1 was tested, and the “CDC % Relative activity” value was 44% and the “CDC EC50” value was 3.59 µg/mL.
In the case of B2, the “CDC % Relative activity” value is reported as 114% and the “CDC EC50” value is reported as 1.39 µg/mL.
With B3 the “CDC % Relative activity” value was 114% and the “CDC EC50” value was 1.61 µg/mL.
For B4, the “CDC % Relative activity” value was 112% and the “CDC EC50” value was 1.64 µg/mL.
For B5, the “CDC % Relative activity” value was 126% and the “CDC EC50” value was 1.45 µg/mL.
B6 was tested, and the “CDC % Relative activity” value was 3.42% and the “CDC EC50” value was 53.6 µg/mL.
B7 was tested, and the “CDC % Relative activity” value was 154% and the “CDC EC50” value was 1.19 µg/mL.
For B8, the “CDC % Relative activity” value was 51.7% and the “CDC EC50” value was 3.06 µg/mL.
For B9, the “CDC % Relative activity” value was 104% and the “CDC EC50” value was 1.76 µg/mL.
With B10 the “CDC % Relative activity” value was 174% and the “CDC EC50” value was 1.06 µg/mL.
B11 was tested, and the “CDC % Relative activity” value was 154% and the “CDC EC50” value was 1.19 µg/mL.
For B12, the “CDC % Relative activity” value was 165% and the “CDC EC50” value was 1.11 µg/mL.
B13 was tested, and the “CDC % Relative activity” value was 487% and the “CDC EC50” value was 0.305 µg/mL.
In the case of B14, the “CDC % Relative activity” value is reported as 174% and the “CDC EC50” value is reported as 0.855 µg/mL.
B15 was tested, and the “CDC % Relative activity” value was 147% and the “CDC EC50” value was 1.01 µg/mL.
In the case of B16, the “CDC % Relative activity” value is reported as 141% and the “CDC EC50” value is reported as 1.06 µg/mL.
With B17 the “CDC % Relative activity” value was 142% and the “CDC EC50” value was 1.05 µg/mL.
In the case of B18, the “CDC % Relative activity” value is reported as 574% and the “CDC EC50” value is reported as 0.275 µg/mL.
In the case of B19, the “CDC % Relative activity” value is reported as 88.2% and the “CDC EC50” value is reported as 1.69 µg/mL.
In the case of B20, the “CDC % Relative activity” value is reported as 125% and the “CDC EC50” value is reported as 1.19 µg/mL.
In the case of B21, the “CDC % Relative activity” value is reported as 117% and the “CDC EC50” value is reported as 1.27 µg/mL.
In the case of B22, the “CDC % Relative activity” value is reported as 129% and the “CDC EC50” value is reported as 1.15 µg/mL.
In the case of B23, the “CDC % Relative activity” value is reported as 164% and the “CDC EC50” value is reported as 1.05 µg/mL.
B24 was tested, and the “CDC % Relative activity” value was 520% and the “CDC EC50” value was 0.331 µg/mL.
With B25 the “CDC % Relative activity” value was 183% and the “CDC EC50” value was 0.941 µg/mL.
In the case of B26, the “CDC % Relative activity” value is reported as 116% and the “CDC EC50” value is reported as 1.48 µg/mL.
For B27, the “CDC % Relative activity” value was 526% and the “CDC EC50” value was 0.327 µg/mL.
